Changes are numbered by the printed parent chain. Names and notes keep the numbering of the source.
What was measured:
[1] = LCMS, IgG1 BsAb co-expression; HCB homodimer species
[2] = LCMS, IgG4 BsAb co-expression; HCB homodimer species
[3] = biological target: T1, HA-tagged human IgG1 Fc portion with CH3 mutations Y349S, K370Y, T366M, K409V; test: UPLC SEC of protein G-purified one-arm antibody co-expressed in HEK293F
T1 chain: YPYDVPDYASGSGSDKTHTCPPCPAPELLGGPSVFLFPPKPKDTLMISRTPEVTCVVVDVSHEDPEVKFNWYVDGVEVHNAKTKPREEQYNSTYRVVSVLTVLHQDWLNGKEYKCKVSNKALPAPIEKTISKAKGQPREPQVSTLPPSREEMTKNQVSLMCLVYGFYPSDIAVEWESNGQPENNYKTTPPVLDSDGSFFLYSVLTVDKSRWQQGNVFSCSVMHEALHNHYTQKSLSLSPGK

[4] = biological target: T2, HA-tagged human IgG1 Fc portion with CH3 mutations Y349S, K370Y, T366V, K409V; test: as above
T2 chain: T1 chain with M160V

[5] = biological target: matuzumab HC_20.8_B + matuzumab LC (IgG1); test: LCMS, IgG1 BsAb co-expression in HEK293F
[6] = LCMS, IgG1 BsAb co-expression; HCA homodimer species
[7] = biological target: matuzumab HC_20.8_B + matuzumab LC (IgG1); test: LCMS, IgG1 BsAb co-expression; HCA/HCB heterodimer carrying two LC1
[8] = biological target: matuzumab HC_20.8_B + matuzumab LC (IgG1); test: LCMS, IgG1 BsAb co-expression; HCA/HCB heterodimer carrying two LC2
[9] = pertuzumab × matuzumab bispecific

B1: matuzumab HC_20.8.34_B + matuzumab LC (IgG1) (protein)
chain 1: QVQLVQSGAEVKKPGASVKVSCKASGYTFTSHWMHWVRYAPGQGLEWIGEFNPSNGRTNYNEKFKSKATMTVDTSTNTAYMELSSLRSEDTAVYYCASRDYDYDGRYFDYWGRGTLVTVSSASTKGPSVFPLAPCSKSTSGGTAALGCLVKDYFPEPVTVSWNSGALTSGVHTFPAVLQSSGLYSLSSVVTVPSSSLGTQTYICNVNHKPSNTKVDKKVEPDSGDKTHTCPPCPAPELLGGPSVFLFPPKPKDTLMISRTPEVTCVVVDVSHEDPEVKFNWYVDGVEVHNAKTKPREEQYNSTYRVVSVLTVLHQDWLNGKEYKCKVSNKALPAPIEKTISKAKGQPREPQVYTLPPSRGDMTKNQVQLTCLVKGFYPSDIAVEWESNGQPENNYKTTPPVLDSDGSFFLASKLTVDKSRWQQGNVFSCSVMHEALHNHYTQKSLSLSPGK
chain 2: DIQMTQSPSSLSASVGDRVTITCSASSSVTYMYWYQRKPGDAPKLLIYDTSNLASGVPSRFSGSGSGTDYTFTISSLQPEDIATYYCQQWSSHIFTFGQGTKVEIKRTVAAPSVFIFPPSKEQLKSGTASVVCLLNNFYPREAKVQWKVDNALQSGNSQESVTEQDSKDSTYSLSSTLTLSKADYEKHKVYACEVTHQGLSSPVTKSFNRGEC
[1]; MetMAb × matuzumab bispecific
  % BB Homodimer (incorrect assembly): 0%
[1]; [9]
  % BB Homodimer (incorrect assembly): 1.6%

B2: matuzumab HC_20.8.37_B + matuzumab LC (IgG1) (protein)
chain 1: B1 chain 1 with G360E, Q368R
chain 2: B1 chain 2
[1]; MetMAb × matuzumab bispecific
  % BB Homodimer (incorrect assembly): 0%
[1]; [9]
  % BB Homodimer (incorrect assembly): 0.5%

B3: matuzumab HC_7.8.60_B + matuzumab LC (IgG1) (protein)
chain 1: B1 chain 1 with E349R, Q351R, G360E, D361E, Q368S, T370V, A411Y, K413V
chain 2: B1 chain 2
[1]
  % BB Homodimer (incorrect assembly): 1.3%

B4: BHA10 HC_7.8.60_B + BHA10 LC (IgG4 HC backbone) (protein)
chain 1: QVQLVQSGAEVKKPGSSVKVSCKASGYTFTTYYLHWVRYAPGQGLEWMGWIYPGNVHAQYNEKFKGRVTITADKSTSTAYMELSSLRSEDTAVYYCARSWEGFPYWGRGTTVTVSSASTKGPSVFPLAPCSRSTSESTAALGCLVKDYFPEPVTVSWNSGALTSGVHTFPAVLQSSGLYSLSSVVTVPSSSLGTKTYTCNVDHKPSNTKVDKRVESDYGPPCPPCPAPEAAGGPSVFLFPPKPKDTLMISRTPEVTCVVVDVSQEDPEVQFNWYVDGVEVHNAKTKPREEQFQSTYRVVSVLTVLHQDWLNGKEYKCKVSNKGLPSSIEKTISKAKGQPRRPRVYTLPPSQEEMTKNQVSLVCLVKGFYPSDIAVEWESNGQPENNYKTTPPVLDSDGSFFLYSVLTVDKSRWQEGNVFSCSVMHEALHNHYTQKSLSLSLG
chain 2: DIQMTQSPSSLSASVGDRVTITCKASQNVGINVAWYQRKPGDAPKSLISSASYRYSGVPSRFSGSGSGTDFTLTISSLQPEDFATYFCQQYDTYPFTFGQGTKVEIKRTVAAPSVFIFPPSKEQLKSGTASVVCLLNNFYPREAKVQWKVDNALQSGNSQESVTEQDSKDSTYSLSSTLTLSKADYEKHKVYACEVTHQGLSSPVTKSFNRGEC
[2]
  % BB Homodimer (incorrect assembly): 4.2%

B5: BHA10 HC_20.8.34_B + BHA10 LC (IgG4 HC backbone) (protein)
chain 1: B4 chain 1 with R341E, R343Q, E352G, E353D, S360Q, V362T, Y403A, V405R
chain 2: B4 chain 2
[2]
  % BB Homodimer (incorrect assembly): 0%

B6: matuzumab HC_7.8.60_B + matuzumab LC (IgG4 HC backbone) (protein)
chain 1: QVQLVQSGAEVKKPGASVKVSCKASGYTFTSHWMHWVRYAPGQGLEWIGEFNPSNGRTNYNEKFKSKATMTVDTSTNTAYMELSSLRSEDTAVYYCASRDYDYDGRYFDYWGRGTLVTVSSASTKGPSVFPLAPCSRSTSESTAALGCLVKDYFPEPVTVSWNSGALTSGVHTFPAVLQSSGLYSLSSVVTVPSSSLGTKTYTCNVDHKPSNTKVDKRVESDYGPPCPPCPAPEAAGGPSVFLFPPKPKDTLMISRTPEVTCVVVDVSQEDPEVQFNWYVDGVEVHNAKTKPREEQFQSTYRVVSVLTVLHQDWLNGKEYKCKVSNKGLPSSIEKTISKAKGQPRRPRVYTLPPSQEEMTKNQVSLVCLVKGFYPSDIAVEWESNGQPENNYKTTPPVLDSDGSFFLYSVLTVDKSRWQEGNVFSCSVMHEALHNHYTQKSLSLSLG
chain 2: B1 chain 2
[2]
  % BB Homodimer (incorrect assembly): 0%

B7: matuzumab HC_20.8.34_B + matuzumab LC (IgG4 HC backbone) (protein)
chain 1: B6 chain 1 with R346E, R348Q, E357G, E358D, S365Q, V367T, Y408A, V410R
chain 2: B1 chain 2
[2]; MetMAb × Matuzumab IgG BsAbs (with select CH3 Designs)
  % BB Homodimer (incorrect assembly): 0%
[2]; Pertuzumab × Matuzumab IgG BsAbs (with select CH3 Designs)
  % BB Homodimer (incorrect assembly): 3.6%

B8: anti-c-Met 5D5 VH-human IgG1 HC with CH3 mutations E357D, S364Q, Y407A, with 5D5 light chain (protein)
chain 1: EVQLVESGGGLVQPGGSLRLSCAASGYTFTSYWLHWVRQAPGKGLEWVGMIDPSNSDTRFNPNFKDRFTISADTSKNTAYLQMNSLRAEDTAVYYCATYRSYVTPLDYWGQGTLVTVSSASTKGPSVFPLAPSSKSTSGGTAALGCLVKDYFPEPVTVSWNSGALTSGVHTFPAVLQSSGLYSLSSVVTVPSSSLGTQTYICNVNHKPSNTKVDKRVEPKSCDKTHTCPPCPAPELLGGPSVFLFPPKPKDTLMISRTPEVTCVVVDVSHEDPEVKFNWYVDGVEVHNAKTKPREEQYNSTYRVVSVLTVLHQDWLNGKEYKCKVSNKALPAPIEKTISKAKGQPREPQVYTLPPSREDMTKNQVQLTCLVKGFYPSDIAVEWESNGQPENNYKTTPPVLDSDGSFFLASKLTVDKSRWQQGNVFSCSVMHEALHNHYTQKSLSLSPGK
chain 2: DIQMTQSPSSLSASVGDRVTITCKSSQSLLYTSSQKNYLAWYQQKPGKAPKLLIYWASTRESGVPSRFSGSGSGTDFTLTISSLQPEDFATYYCQQYYAYPWTFGQGTKVEIKRTVAAPSVFIFPPSDEQLKSGTASVVCLLNNFYPREAKVQWKVDNALQSGNSQESVTEQDSKDSTYSLSSTLTLSKADYEKHKVYACEVTHQGLSSPVTKSFNRGEC
[3]
  % heterodimer (UPLC): 93%
[4]
  % heterodimer (UPLC): 92.5%

B9: anti-c-Met 5D5 VH-human IgG1 HC with CH3 mutations E357D, S364R, Y407A, with 5D5 light chain (protein)
chain 1: B8 chain 1 with Q366R
chain 2: B8 chain 2
[3]
  % heterodimer (UPLC): 85%
[4]
  % heterodimer (UPLC): 85%

B10: BHA10 HC_7.8.60_B + BHA10 LC (IgG1) (protein)
chain 1: QVQLVQSGAEVKKPGSSVKVSCKASGYTFTTYYLHWVRYAPGQGLEWMGWIYPGNVHAQYNEKFKGRVTITADKSTSTAYMELSSLRSEDTAVYYCARSWEGFPYWGRGTTVTVSSASTKGPSVFPLAPCSKSTSGGTAALGCLVKDYFPEPVTVSWNSGALTSGVHTFPAVLQSSGLYSLSSVVTVPSSSLGTQTYICNVNHKPSNTKVDKKVEPDSGDKTHTCPPCPAPELLGGPSVFLFPPKPKDTLMISRTPEVTCVVVDVSHEDPEVKFNWYVDGVEVHNAKTKPREEQYNSTYRVVSVLTVLHQDWLNGKEYKCKVSNKALPAPIEKTISKAKGQPRRPRVYTLPPSREEMTKNQVSLVCLVKGFYPSDIAVEWESNGQPENNYKTTPPVLDSDGSFFLYSVLTVDKSRWQQGNVFSCSVMHEALHNHYTQKSLSLSPGK
chain 2: B4 chain 2
[1]
  % BB Homodimer (incorrect assembly): 1.6%

B11: BHA10 HC_20.8_B + BHA10 LC (IgG1) (protein)
chain 1: B10 chain 1 with R344E, R346Q, E356D, S363Q, V365T, Y406A, V408K
chain 2: B4 chain 2
[1]
  % BB Homodimer (incorrect assembly): 0%

B12: BHA10 HC_20.8.34_B + BHA10 LC (IgG1) (protein)
chain 1: B10 chain 1 with R344E, R346Q, E355G, E356D, S363Q, V365T, Y406A, V408K
chain 2: B4 chain 2
[1]
  % BB Homodimer (incorrect assembly): 0%

B13: BHA10 HC_20.8.37_B + BHA10 LC (IgG1) (protein)
chain 1: B10 chain 1 with R344E, R346Q, E356D, S363R, V365T, Y406A, V408K
chain 2: B4 chain 2
[1]
  % BB Homodimer (incorrect assembly): 0%

B14: MetMAb HC_20.8_A + MetMAb LC (IgG1) (protein)
chain 1: EVQLVESGGGLVQPGGSLRLSCAASGYTFTSYWLHWVRKAPGKGLEWVGMIDPSNSDTRFNPEFKDRFTISADTSKNTAYLQMNSLRAEDTAVYYCATYRSYVTPLDYWGQGTLVTVSSASTKGPSVFPLAPSSKSTSGGTAALGCLVKDYFPEPVTVSWNSGALTSGVATGPAVLQSSGLYSLSSVVTVPSSSLGTQTYICNVNHKPSNTKVDKKVEPKSCDKTHTCPPCPAPELLGGPSVFLFPPKPKDTLMISRTPEVTCVVVDVSHEDPEVKFNWYVDGVEVHNAKTKPREEQYQSTYRVVSVLTVLHQDWLNGKEYKCKVSNKALPAPIEKTISKAKGQPREPQVSTLPPSREEMTKNQVSLVCLVYGFYPSDIAVEWESNGQPENNYKTTPPVLDSDGSFFLYSVLTVDKSRWQQGNVFSCSVMHEALHNHYTQKSLSLSPGK
chain 2: RIQMTQSPSSLSASVGDRVTITCKSSQSLLYTSSQKNYLAWYQDKPGKAPKLLIYWASTRESGVPSRFSGSGSGTDFTLTISSLQPEDFATYYCQQYYAYPWTFGQGTKVEIKGQPKAAPSVTLFPPSSEELQANKATLVCYISDFYPGAVTVAWKADSSPVKAGVETTTPSKQSNNKYAAWSYLSLTPEQWKSHRSYSCQVTHEGSTVEKTVAPTEC
[5]
  % AB (LC1/LC2) (correct IgG BsAb assembly): 75.6%
[6]
  % AA Homodimer (incorrect assembly): 0%
[7]
  % AB (2x LC1) (incorrect assembly): 0%
[8]
  % AB (2x LC2) (incorrect assembly): 24.4%

From patent publication US20180009908
